Positions of bridges follow the written chain, without caps; N, C: chain ends. No end group written: not given here.
Target: T1, GST-HCCS (human holocytochrome c synthase, GST-tagged) (human, UniProt P53701 1-268)
T1 construct: human HCCS (holocytochrome c synthase), recombinant, from pGEX GST:HCCS; Carries non-covalent heme liganded to His154 (about 10% occupied as purified, about 30% after heme loading); also called holocyt c synthase; mitochondrial cyt c synthase
T1 sequence (looked up): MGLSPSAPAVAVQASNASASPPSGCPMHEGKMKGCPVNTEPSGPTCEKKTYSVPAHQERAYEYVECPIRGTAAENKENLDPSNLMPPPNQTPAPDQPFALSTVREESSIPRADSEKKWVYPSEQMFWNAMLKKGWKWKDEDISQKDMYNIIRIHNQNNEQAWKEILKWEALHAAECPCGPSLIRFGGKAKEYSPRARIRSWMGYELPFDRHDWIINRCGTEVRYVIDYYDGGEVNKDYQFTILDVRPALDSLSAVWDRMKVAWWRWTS
Assay: UV-vis absorption spectroscopy; anaerobic in vitro reaction of purified HCCS with peptide, 5 mM DTT, 37°C, 1 hr; reduced alpha peak at 552-555 nm read as heme-attached peptide still bound to HCCS (550 nm for a free heme-attached peptide)
Conditions: both partners purified

B1: heme-attached 16mer (product of the HCCS reaction) (peptide)
peptide: KGKKIFIMKCSQCHTV
modifications: linker 10-13 via heme; also: biotin label, position not given here
notes: stretch of cytochrome c with alpha helix 1 and CXXCH; The product of m6 in the HCCS reaction; source: synthetic peptide (RS-synthesis), heme attached in vitro by GST-HCCS
binding result: binds

From publication PMC8112865, “In vitro reconstitution reveals major differences between human and bacterial cytochrome c synthases” (eLife, 2021)
